In this assay the target is Helicobacter pylori CbpA, wild type, carboxyl-terminal His-tagged (H. pylori (strain G27)). The assay is described as follows: cross-linking; 5 uM purified protein with 0, 0.0025, 0.005 and 0.01% glutaraldehyde in 1x binding buffer (10 mM Tris-HCl pH 8.0, 50 mM NaCl, 10 mM KCl, 5 mM MgCl2, 0.1 mM DTT, 0.01% NP40), 1 hour at 25 °C; SDS-PAGE, Coomassie staining.

Turning to “Helicobacter pylori CbpA, wild type, carboxyl-terminal His-tagged (natural protein)”, the stoichiometry N stood at 2.
